# Results taken from patent US12565517B2, “Cyclic peptide having CTLA-4 inhibitory activity and use thereof” (GeneFrontier Corporation, priority 2019, dated 2026).
# Target: T1, CTLA-4 (Homo sapiens, UniProt P16410)
# T1 sequence (P16410 36-223): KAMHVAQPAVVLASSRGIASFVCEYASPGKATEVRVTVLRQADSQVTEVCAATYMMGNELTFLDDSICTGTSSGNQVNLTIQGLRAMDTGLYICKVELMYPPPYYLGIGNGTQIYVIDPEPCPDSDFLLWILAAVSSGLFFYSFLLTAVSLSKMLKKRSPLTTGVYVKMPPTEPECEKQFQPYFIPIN
# Assay: ELISA binding of clones after Affinity Maturation with random library (Tables 10, 11)
# Conditions: CTLA-4 binding ELISA of clones after Affinity Maturation from random (NNS) library; signal/noise ratio; clones of 4th or 5th round
# Protocol: After each round of Affinity Maturation, the cyclic peptide genes were recovered and subcloned into pET-Mal vector (FIG. 2) in the same manner as described above to perform base sequence analysis. For the 94 single colonies analyzed for sequence, E. coli transformants were inoculated into 100 μL of 2×YT medium containing ampicillin (final concentration 50 μg/mL), incubated at 37° C. for 3-5 hours (OD600=0.5-0.8), then added with IPTG (final concentration 0.5 mM) and incubated at 25° C. overnight. 10 μL of E. coli cultured medium was added with 90 μL of PBS and 40 μL of lysis reagent (20 μL BugBuster Protein Extraction Reagent (Novagen), 20 μL Lysozyme solution 2.5 mg/mL) to lyse E. coli cells for 1 hour at room temperature. The cell lysate was added with 40 μL of 12.5% skim milk solution (TBST) and blocked for 1 hour at room temperature. In parallel, antigen protein was immobilized overnight at 4° C. in 384-well plates at 100 ng/20 μL per well, and each well was washed twice with 100 μL/well of TBST, added with 100 μL/well of 5% skim milk solution (TBST) for blocking for 1 hour at room temperature, and washed twice with 100 μL/well of TBST to obtain antigen-immobilized plates. 20 μL/well of blocking-treated E. coli extract was added to the antigen-immobilized plates and gently stirred at room temperature using a plate mixer. After 1 hour, the plates were washed 5 times with 100 μL/well of TBST, 20 μL/well of anti-FLAG M2-HRP conjugate (1:2000 dilution, Sigma) was added and gently stirred on a plate mixer for 1 hour at room temperature. The plates were washed 5 times with 100 μL/well of TBST, and binding of cyclic peptides to the antigen was detected by 20 μL/well of chromogenic substrate (0.4 mg/mL 3,3′,5,5′-Tetramethyl-benzidine, 0.01% hydrogen peroxide). After 15 minutes of reaction at room temperature, the reaction was stopped with 20 μL/well of 2N HCl, and absorbance at 450 nm was measured using a plate reader (infinite F200: TECAN) (Table 5).
# Oligo DNAs of a library were synthesized (see below), in which amino acid residues (positions 1, 4, 8, 10, +1 and +2) (corresponding to X1, […], X8, X10, X+1 and X+2) other than those essential or advantageous for CTLA-4 binding (2H, 3P, 5L, 6P, 7I, 9S, 11H, 12F) identified by alanine scanning were randomized (NNS).
# Affinity Maturation was performed in the same manner as described above. The amount of biotinylated CTLA-4 immobilized on the magnetic beads was 10 pmol in the 1st round, 2 pmol in the 2nd round, and 1 pmol in the 3nd-5th rounds, respectively. The washing period was 2 hours for the 1st round, 19 hours for the 2nd round, 67 hours for the 3nd round, 140 hours for the 4th round, and 340 hours for the 5th round. Washing frequency was 1 time (2 hours) in the 1st round, 2 times (every 10 hours) in the 2nd round, 6 times (every 10 hours) in the 3rd round, 14 times (every 10 hours) in the 4th round, and 36 times (every 10 hours) in the 5th round.
row,Substance,ELISA S/N(SA)
1,C4m#19-5th4w-NN6-65 (GGCWHPFLPILSLHFCSR; C4m#19-5th4w-NN6-65),12.5
2,C4m#19-5th4w-NN6-2 (GGCWHPHLPIVSSHFCLF; C4m#19-5th4w-NN6-2),18.4
3,C4m#19-5th4w-NN6-59 (GGCLHPHLPIWSLHFCPL; C4m#19-5th4w-NN6-59),27.6
4,C4m#19-5th2w-NNS6-86 (GGCFHPYLPIWSLHFCRS; C4m#19-5th2w-NNS6-86),7.7
5,C4m#19-5th4w-NN6-93 (GGCCHPWLPIVSTHFCGL; C4m#19-5th4w-NN6-93),28.9
6,C4m#19-5th4w-NN6-90 (GGCRHPWLPIVSYHFCSS; C4m#19-5th4w-NN6-90),21.2
7,C4m3127-4th-NNS6-85 (GGCGHPFLPIFSSHFCPL; C4m3127-4th-NNS6-85) [Clone C4m3127-4th-NNS6-85],9.1
8,C4m#19-5th4w-NN6-69-1 (GGCSHPFLPILSVHFCPF; C4m#19-5th4w-NN6-69-1),24.9
9,C4m#19-5th2w-NNS6-3 (GGCAHPFLPIFSPHFCPF; C4m#19-5th2w-NNS6-3),18.4
10,C4m#19-5th4w-NN6-11 (GGCRHPFLPIWSHHFCVC; C4m#19-5th4w-NN6-11),22.1
11,C4m#19-5th4w-NN6-75 (GGCWHPFLPIKSVHFCCA; C4m#19-5th4w-NN6-75),5.6
12,C4m#19-5th4w-NN6-5-1 (GGCWHPYLPIQSLHFCPF; C4m#19-5th4w-NN6-5-1),14.7
13,C4m#19-5th4w-NN6-69-3 (GGCLHPWLPIVSVHFCAR; C4m#19-5th4w-NN6-69-3),24.9
14,C4m#19-5th4w-NN6-82 (GGCFHPFLPIRSLHFCCR; C4m#19-5th4w-NN6-82),28.3
15,C4m#19-5th4w-NN6-94 (GGCLHPFLPIYSLHFCPC; C4m#19-5th4w-NN6-94),5.0
16,C4m#19-5th2w-NNS6-68 (GGCLHPWLPIVSCHFCPR; C4m#19-5th2w-NNS6-68),4.6
17,C4m#19-5th4w-NN6-91 (GGCMHPYLRIISPHFCRG; C4m#19-5th4w-NN6-91),30.0
18,C4m3127-4th-NNS6-17 (GGCRHPVLPIVSLHFCPG; C4m3127-4th-NNS6-17) [Clone C4m3127-4th-NNS6-17],20.4
19,C4m#19-5th4w-NN6-56 (GGCWHPFLPIQSLHFCGV; C4m#19-5th4w-NN6-56),27.1
20,C4m#19-5th2w-NNS6-27 (GGCFHPFLPIRSCHFCAR; C4m#19-5th2w-NNS6-27),9.9

row,Substance,ELISA S/N(SA)
1,C4m#19-5th2w-NNS6-70 (GGCRHPFLPIVSWHFCAA; C4m#19-5th2w-NNS6-70),5.1
2,C4m#19-5th4w-NN6-71 (GGCPHPWLPIASVHFCPF; C4m#19-5th4w-NN6-71),17.4
3,C4m#19-5th4w-NN6-30 (GGCWHPFLPIMSFHFCPY; C4m#19-5th4w-NN6-30),16.7
4,C4m#19-5th4w-NN6-72 (GGCWHPWLPIVSVHFCGC; C4m#19-5th4w-NN6-72),4.6
5,C4m#19-5th2w-NNS6-6 (GGCWHPYLPILSLHFCQR; C4m#19-5th2w-NNS6-6),10.3
6,C4m#19-5th4w-NN6-52 (GGCLHPFLPIRSVHFCGC; C4m#19-5th4w-NN6-52),28.6
7,C4m#19-5th2w-NNS6-28 (GGCAHPYLPIRSVHFCPC; C4m#19-5th2w-NNS6-28),6.3
8,C4m#19-5th4w-NN6-86 (GGCAHPVLPIRSLHFCPH; C4m#19-5th4w-NN6-86),19.7
9,C4m#19-6th4w-NN6-5-3 (GGCWHPFLPILSLHFCGW; left off: large carriers; small tags and cut ends),14.7
10,C4m#19-5th4w-NN6-25 (GGCLHPVLPIRSRHFCPV; C4m#19-5th4w-NN6-25),38.9
11,C4m#19-5th4w-NN6-62 (GGCQHPYLPIWSFHFCPF; C4m#19-5th4w-NN6-62),17.2
12,C4m#19-5th4w-NN6-83 (GGCLHPLLPILSVHFCPS; C4m#19-5th4w-NN6-83),12.0
13,C4m#19-5th4w-NN6-61 (GGCPHPMLPIFSVHFCPY; C4m#19-5th4w-NN6-61),5.9
14,C4m#19-5th4w-NN6-21 (GGCWHPWLPILSPHFCPR; C4m#19-5th4w-NN6-21),37.5
15,C4m#19-5th4w-NN6-47 (GGCPHPWLPIFSRHFCPV; C4m#19-5th4w-NN6-47),34.2
16,C4m#19-5th2w-NNS6-25 (GGCKHPFLPISSHHFCPY; C4m#19-5th2w-NNS6-25),21.1
17,C4m#19-5th4w-NN6-1 (GGCRHPYLPIFSAHFCRS; C4m#19-5th4w-NN6-1),16.1
18,C4m3127-4th-NNS6-80 (GGCGHPFLPIFSLHFCPR; C4m3127-4th-NNS6-80) [Clone C4m3127-4th-NNS6-80],12.8
19,C4m3127-4th-NNS6-19 (GGCMHPSLPIWSWHFCPH; C4m3127-4th-NNS6-19) [Clone C4m3127-4th-NNS6-19],4.1
20,C4m#19-5th4w-NN6-80 (GGCRHPFLPIFSWHFCAV; C4m#19-5th4w-NN6-80),3.8

row,Substance,ELISA S/N(SA)
1,C4m#19-5th4w-NN6-24 (GGCWHPWLPIYSHHFCPI; C4m#19-5th4w-NN6-24),27.6
2,C4m#19-5th2w-NNS6-37 (GGCIHPFLPIWSIHFCSR; C4m#19-5th2w-NNS6-37),9.4
3,C4m#19-5th4w-NN6-23 (GGCRHPHLPIWSWHFCGR; C4m#19-5th4w-NN6-23),30.2
4,C4m#19-5th4w-NN6-6 (GGCMHPFLPIKSSHFCRK; C4m#19-5th4w-NN6-6),16.1
5,C4m#19-5th4w-NN6-89 (GGCMHPFLPIISQHFCAF; C4m#19-5th4w-NN6-89),8.3
6,C4m#19-5th2w-NNS6-74 (GGCMHPFLPIRSWHFCSR; C4m#19-5th2w-NNS6-74),7.0
7,C4m#19-5th4w-NN6-20 (GGCSHPQLPILSDHFCSA; C4m#19-5th4w-NN6-20),30.6
8,C4m#19-5th4w-NN6-37 (GGCLHPFLPISSWHFCGR; C4m#19-5th4w-NN6-37),22.7
9,C4m3127-4th-NNS6-48 (GGCFHPWLPIASWHFCGR; C4m3127-4th-NNS6-48) [Clone C4m3127-4th-NNS6-48],13.5
10,C4m#19-5th4w-NN6-53 (GGCRHPFLPIYSVHFCAC; C4m#19-5th4w-NN6-53),32.2
11,C4m#19-5th4w-NN6-36 (GGCRHPYLPIWSAHFCCR; C4m#19-5th4w-NN6-36),5.7
12,C4m#19-5th2w-NNS6-90 (GGCRHPFLPIVSFHFCPF; C4m#19-5th2w-NNS6-90),19.7
13,C4m#19-5th4w-NN6-65-1 (GGCWHPFLPISSPHFCGR; left off: large carriers; small tags and cut ends),29.5
14,C4m3127-4th-NNS6-26 (GGCAHPALPIWSCHFCPF; C4m3127-4th-NNS6-26) [Clone C4m3127-4th-NNS6-26],7.1
15,C4m#19-5th2w-NNS6-43 (GGCRHPFLPIWSSHFCAA; C4m#19-5th2w-NNS6-43),4.8
16,C4m#19-5th2w-NNS6-34 (GGCCHPFLPIYSVHFCAS; C4m#19-5th2w-NNS6-34),5.0
17,C4m3127-4th-NNS6-64 (GGCLHPYLPIVSSHFCPF; C4m3127-4th-NNS6-64) [Clone C4m3127-4th-NNS6-64],12.9
18,C4m3127-4th-NNS6-2 (GGCWHPSLPIYSPHFCPL; C4m3127-4th-NNS6-2) [Clone C4m3127-4th-NNS6-2],12.8

# Same assay, conditions: S/N ratio of CTLA-4 binding in ELISA; clones from 4th or 5th round of Affinity Maturation from random (NNS) library
row,Substance,ELISA S/N(SA)
1,C4m#19-5th2w-NNS6-41 (GGCWHPVLPIRSDHFCCR; C4m#19-5th2w-NNS6-41),3.1
